Results on 22 sequences are retold here after the DeepSol protein solubility set.

The data set is described as follows: soluble on expression in E. coli; label from the status in PepcDB or PDB records.
Regarding “MSIIAINENGFLDKIKGRNPLFTCVISSIETTLSIPISGVHRDVIKYTPSADVELVFYGKSLTLKTPPIDATGSPTPATITRACVELKNIKNLHIDAGAFVKPKIPFIEIDEKPTGRIEEGKAMNNSKELYMKGYLLGKNLDAELLIVGESVPGGTTTALGVLLGLGYDAEGKVSSGSINNPHELKIKVVREGLKKAGINEKSSVFDVLNAVGDKMMPVVAGLAISFAERNKPVILAGGTQMSAVLAVIKEINKKVLDKNLIAIGTTEFVLNDKKGDLKGIVEQIGNVPVLASKFYFEKAKIEGLKNYCKGSVKEGVGAGGIAVYSIVNDLEPTKIREFIENKFYEWYKE”, the “soluble on expression in E. coli” value is on record as “soluble”.

Consider “AKTTIIAGSAEAPQGSDIQVPVKIENADKVGSINLILSYPNVLEVEDVLQGSLTQNSLFDYQVEGNQIKVGIADSNGISGDGSLFYVKFRVTGNEKAEQAENVKGKLRGLGQQLSEITLRNSHALTLQGIEIYDIDGNSVKVATINGTFRIVSQEEAHHHHHH”, for which the “soluble on expression in E. coli” value is listed as “soluble”.

Turning to “MGSDKIHHHHHHMQNLDALLIFARVAEMTSFTRAAESLGIQKGRVSMVIRKLERDVGVALLHRTTRSVQLTEDGRAFYSRARDLLAEVQELQSMFSGNGTRLRGRLRVDMPTELARSVVVPALPQLMAAHPELELELSSTDRRVDLVQEGFDCVIRLGPITDDTLIARPLGKLRMTNAASPGYLARYGIPHTLDDLRTQGHRMVHYTLTLGARHPGWEYPNGDGYASLPLPSAMQVNSVQTYHAAGLAGIGLIQAGYSALAHHIESGALVEVLPDLRPEPLAASLVVAHRRNLSPRVRAFMDWIEGVLAPYLD”, the “soluble on expression in E. coli” value is on record as “not soluble”.

As for “MYRIGELAKMAEVTPDTIRYYEKQQMMEHEVRTEGGFRLYTESDLQRLKFIRHARQLGFSLESIRELLSIRIDPEHHTCQESKGIVQERLQEVEARIAELQSMQRSLQRLNDACCGTAHSSVYCSILEALEQGASGVKSGC”, the “soluble on expression in E. coli” value is “not soluble”.

As for “EDPGGITRTKGERVDATVDGLPDGVSPEDAAKFTSVLNKLIKDDPELKKSVEVKTLKAASKTKRTKEVVNWRGGGGFQVAHLSPACFDYDPALDRVMLTAAATGETLIESVAANLGFTLLHPDDDYVFDARRGNALLKVVEGVATPQIVDWLASQIQPGETIVLAATTVMDGVRQHLRKAVKGSRVVALPDDIFRYSEGGNK”, the “soluble on expression in E. coli” value is on record as “not soluble”.

In the case of “MGSDKIHHHHHHMRNINYFFAGSLLLLSGCQLIPNGDIPADDETNINPTLEVVSPTESDTREQVVEARDLWQRMQEGMHWEKPNEAYVAPFRQKLLANPRHLEQVFSRAEPFLYLIVDELERRGLPLELALLPAIESAFDADAISHASASGLWQLTPPMARYFGLKMNWWYDGRNDVVASTRAAADFLEYLYDRTGNNWHYAIAAYNSGEGRVLSAVRHNEKAGKPTDIWALKLPRETRNYVPNLLALADVVKHADKYGVSLPRIKNEPVVDVVEIGSQIELALAAELAGLSVSELKSLNPGFKQWATAPKGPHRLVVPVSNAPDFVVALAQTPQEQRVQWARYQIKRGDSLSVIARQFGTTPQVLKQVNQMKNNQLIAGKELVVPANGRTNASAQLASATPKQSYKVKSGDSLWKIAQAHGISVNDLKKWNSLGSKAIIRQGQLLTVWPGSKAVANTRSTTYQVKRGDSLSLIAQKFKVKISELMSWNKLSSSALQPGQTLTVMLQ”, the “soluble on expression in E. coli” value is on record as “not soluble”.

Turning to “MGSDKIHHHHHHMKIDDMDAFVAVIRCQSTNLAAEALQLTQPAITRRVQNFEEDLGATLLDRNTKPLKPTPMGLRVYEQCKAILREIDSLRELVANDGAPSGTLRLGVPQTLGDVVLLDALAQIREAYPQLRTQVTSGWGSSLIARMENGELDAAAALFPPGKIFPEGIASQSIARMPLRVVTAKGSAGKRSYKLKDCYTRGWVLNPDGCGFRAGLQRALSEQGLSLSINLETFGTELQLGLVANGQGLGLVPEPLLQTSRHRSALDVLNISDFKPQVDLWLFHPRYLGNLQEPVELFGEVAGHRLLG”, the “soluble on expression in E. coli” value is “not soluble”.

As to “MAHHHHHHMKRGGRKKKGTLSNKLGKGKNDPSEDEEVIESETSSDEMGESNSASEESIDSDADNLSDKEQESQAEKQIQIYFTSNVANEKYQMEDTIYTIPATFKRIDLSRMVKKLLDIKENVSFEFLINDQILRSSIEEFLQLNNILSENVIEIKYILSITKKESTPIDKISEWISKLIIIENRLYCSTFGGSALCYDMSNFAKIDARKVADMSIFAFNVCKNDKLIDGEVKYSESVVGLSNGTIRAFLNEEMDQKIVTRSDLYLGNHDDMVKSIAFNKSGSLLITGGADNKINLYDNKEIVQKLKEYKSENDTNKRKMKHVLTPKKCIHKDVGIITTLTFFNSNNHFLCTGLEKNIKIYDADTADLFATLPYGKAIMCSDILNDNLFVTADEQSVIKLFDVRCLEEKAVISMNENKYFFHDKVITSLWGNKNGIHFLSSSHDGFTNIYDVRLNKFPVYTIQTEDKSKVLSSTWFYRESNNYVINADENNLTLHSF”, the “soluble on expression in E. coli” value is reported as “not soluble”.

As for “MGSDKIHHHHHHMAPLRIRYQTHEFGVLDIHIRTLRDNQEFEDINGEAEKLGISSATWPLFGIVWPSEQVLSHHMLDYPIEGKRILEVGCGIGLASLVLNHRLADITATDYHPETGSFLSQNVALNKGRTIPFVRTGWADETSKLGLFDLIIGSDLLYEQEHADLLSQFIEQHAKPICDVILVDPGRGNHAKFSKRMVTLGYEHSQHKPIHTEFLLAPFGGQILSYSRTKS”, the “soluble on expression in E. coli” value was “not soluble”.

On to “MGRIYLKKAKSEEDLLKRGRPFTVEVDELKIPFCVSPVTNTFDNKKKVFLTFLGPVKQFHEAIHLCITSLYRPTPYNKYELTTNVDDLTCTPDIKNMKESYLATIKSESLNASTIDNFLSKKTSIEKLTLGMKVLDNFQEDSAIFRMKYFWFTYSLEHAPIVLSKFQGTHLWMTDANIKNEDIISFLNTWQNSECDRKIFEIKVSEGMNPLNPDIVYEDIDVSDWDPAERPKEFNFVSTFFPENFNKVYDCSTWMDIKRSGDGKIASICITSNAFKFLVWD”, for which the “soluble on expression in E. coli” value is “not soluble”.

For the sequence “MGSDKIHHHHHHMREKIKLELERIEKENDVKILFAVESGSRVWGFPSKDSDYDVRFVYMHPVEWYLSIHDKRDVIEYPISDDLDISGWDIKKALQLFAKSNPALLEWIRSPIFYSKNSNFPEQLQQMSEKNFDPKATIYHYLHMASKNYREFLQGENVKLKKYFYVLRPILACKWLEEKTTLPPVEFDRLITELSIERSVLDEIEQLLIKKKAGTELDVGLKIEVLNQFLEEQIHYYQQYVKGIEKGSGIDIESLNTLFRDMLFAVYEKEHK”, the “soluble on expression in E. coli” value is listed as “not soluble”.

Consider “HIPEMGGQHYLGDSLDKDWRVTRDNQQFAFEYQDNEGQAQSKVLTLKVGDNLEEVATYINAQQSVVDASVTQDHQLQFFTSTLNAPEGITWKGNFADEMDIGSGELVTVDDLDMSTVGGAQLAIGVVDAAIKYVDSHRSEIGGFQNRVSGTIDNLNTINRSVSESKGRIRDTDFARESTVMVRSQVLQDATTALLAQAKQRPSSALGLLS”, for which the “soluble on expression in E. coli” value was “not soluble”.

Take “MEHDLNDMMVFLAVVETGSFTLAADRLGMPKANVSRKVSRLEKNLAVTLLERSTRSQHLTEAGRRYLAHCKRIHEELDLATASVCELFHSYTGELKIGASVASGQQVLRPALGKFMRQYPDLKVQLNLVNRRVDFIEEGFDVVIRIGQLNDSMLIAKKLGAINRKIFASPSYLAKQGNPDKVEQLTEHQLLIMNPLNISGNKDLKLPLTSTDHETFTLDCQPRLLVDDFSMLKQAIVDGLGIGVLPDYMCRQEVASGQLVNILPDWGMAKVDIYALYPKHRAKIPKVKAFIDFVSELYGEVL”: the “soluble on expression in E. coli” value is listed as “not soluble”.

As for “MPRPSQRLLSPEIITEAAMRMVDLTGDFTMPGLAERLKVRPSSLYNHVSGRAEIIELMRARMMAGIVVADPDGKWSETVAGLAREYRRNYAEHPRLIPLFTAHTVQSGVAFGLYNALAQAFSDGGFTPEEILHAITTVDSFVLGSALDLAAPEVVWATAPEANEAMLAALATSGPNPGRADAAFEFGLRTLIAGLVAQAPIEP”, the “soluble on expression in E. coli” value is “not soluble”.

With “MGHHHHHHGGHMSLTISLAKGQKVDLTKTNPGLSKVVVGLGWDTNKYDGGHDFDLDSSVFLLDAAGKCASPNDFIFYNQLEGGNGSVVHSGDNLTGAGEGDDENVKVNLSAVPANIDKISFVITIHDAEARSQNFGQVSNAFVRIVNEETNEELIRYDLAEDFSIETAIIAGELYRHNGEWKFSAIGSGYQGGLARIATDYGLQVGEGGS”, the “soluble on expression in E. coli” value is on record as “soluble”.

Consider “MPGERFSHSRCHAIAIKELQRRTENRDGTALHILPKSQRKLAIFLINMDSATKRLTDMNARLDAMGLKAERVAGVNGRELQYPIPEFSEISYMLMHGRRTSPPEIGCYLSHVACANKFMTGDADIALILEDDVVFEDDFLDAIDEAVLNGNDWDILRLTTVSNGRKFAFRALSNGRSLAVALTREKGSGAYLVNRRAGKWISKLIPMRLAYDIAFDLEYLSGLKAAFIYPLCATQDADGESQIQNNLRIYRLPRWRYFTVLPYRAYLETSRFLLRGLRFLVAKAKVAMERGKPKAVQAGRLEHHHHHH”, for which the “soluble on expression in E. coli” value was “soluble”.

For the sequence “RPQNTNSWQKDSIEGIDIMLAMDVSGSMQAMDFKPNRLEAAKDVAISFINNRPNDNIGMVTFAGESFTQCPLTTDHTVLLNMVQDLQ”, the “soluble on expression in E. coli” value is listed as “soluble”.

On to “MLIRSETPADQRAIFDVTQAAFRGHPHSEQTEAYIVQALRAAGALTLSLVAELDARVVGHAAFSPVQISDGSPSWFGLGPVSVDPAHQGRGIGTALIEHGLARLQARGAAGCVLVGEPAYYGRFGFRPEPGLVLPDMPPTHFLALTFGAPARGTVTYHPGFAARDA”, for which the “soluble on expression in E. coli” value is listed as “not soluble”.

For “MCLGIPARVVEVLDGPLPMAVVDMAGEQRPCSVMYVPEVQVGQFVLLQNGYAMEVLDEKSAQESLATIAEFNLVQQVQLAPREPR”, the “soluble on expression in E. coli” value is recorded as “not soluble”.

Consider “MAHHHHHHMFKFVSSIGDAAYKAASKTGLAAGSEQPPYPCALPLQVIEDCEDTETTERVLNDTYAAVRDLLSDDLPLLHSTISDVQAHKPFKLVDFTDREGDIRLFTRPHVGSYNFARVTLTLDNVSPAKVLTFMHAQSLEARNRYSSNLCQYDVIARNPELPAQYIGNDNDHLEELCRMGIRDWHVEYNRYSAPPPVTARDFVYLVEKRYAPEQRCYYIYGTSVDYRDTAGIAIEKDNCVRGAVVFGWRFQHVGRKTYCTYVSCMSPNGWAPTFIVGWMKTAIAKELQNARRVLYQDVPSCHAAGASSEYAKGALAAYDAPITSCRQNKPTRDHSSSKSSAQKLGNAMEHEERRLLEDEKPIVFE”, for which the “soluble on expression in E. coli” value is given as “soluble”.

As for “GPMPQLTLDKTDIKILQVLQENGRLTNVELSERVALSPSPCLRRLKQLEDAGIVRQYAALLSPESVNLGLQAFIRVSIRKAKDAREDFAASVRKWPEVLSCFALTGETDYLLQAFFTDMNAFSHFVLDTLLSHHGVQDAQSSFVLKEIKHTTSLPLNHLLKE”, the “soluble on expression in E. coli” value is listed as “soluble”.

Consider “MSHHKLEVKNLSFTYPDGHKAIDGISFTVRHGESVGIVGENGAGKSTLLLVLMGVLFPNQGEVRVGDVRVTKKTLPLIRQRLGMVFQNPDDQLFMTTVYDDVAFGPRNYKLDEKEVEDRVMKSLDMVGISHLKDKAPYKLSGGEKRAAAIATVLSMQPDILVMDEPTSSLDPRSRRRVMELLKNFEHTKIITSHDLDMVLEICERTIVLKQGKVAADGLTSEILADKELMNTCGLEVPLALQGCPVCGEKKKYV”, for which the “soluble on expression in E. coli” value is “soluble”.
